Reference: patent publication US20150166643A1 (Alexion, published 2015)

Columns and labels:
[1] = biological target: T1, human factor B (purified, Complement Technology A135) (human, UniProt P00751 26-764); assay: cell-based or functional assay
[2] = biological target: T1, human factor B (purified, Complement …); assay: SPR, factor B on surface, Fab flowed (summary table)
Excerpt: (§1) Binding kinetics of TA106 Fab and variant S33A Fab (CLS016) were further characterized using Surface Plasmon Resonance (SPR) technology. In one exemplary experiment, both Fabs were captured on chips of a Biacore 3000 analyzer and samples of human factor B of different concentrations were flowed as the antigen over the surface to model soluble human factor B binding, using protocols recommended by the manufacturer and described previously in the instant disclosure. […] In another exemplary experiment, the affinities of both Fabs were also measured by reversing the orientation of the previous experiment. Specifically, human factor B was directly coupled to one flow cell of a CM5 chip. The second flow cell was used as a blank reference with no coupled ligand. CLS016 or TA106 Fab was then flowed on both flow cells. Concentrations between 0.19 to 25 nM were run with duplicates. The surface was regenerated between each cycle.

[3] = biological target: T1, human factor B (purified, Complement …); assay: BLI (Octet), biotinylated factor B on streptavidin biosensor, Fab at 50 nM
Method: (§2) Binding kinetics of TA106 and TA106 S33A Fab (CLS016) to Factor B were analyzed using a FortéBio® Octet® biosensor (FortéBio, Inc.) in a similar protocol as described previously. In one exemplary experiment, Factor B (Complement Technology) was biotinylated at a 1:10 ratio and coupled to a streptavidin biosensor at a concentration of 5 μg/mL for a loading time of 600 seconds. Biosensors were briefly dipped in 1×KB as a wash for 30 seconds. Associations with a titration series of Fab with a concentration range from 100 to 3 nM (diluted in 1×KB) were carried out for 600 seconds. Fabs were dissociated from the biosensor by immersing the biosensor in 1×KB during the 600 second dissociation phase. As depicted in FIGS. 19 and 20, both TA106 Fab and TA106-derivative S33A Fab (CLS016) bound to Factor B at various concentrations, resulting in nearly identical association and dissociation profiles. Kinetic assessments using partial local fit parameters yielded identical values for KD/kₐ/Kd at each concentration tested.

[4] = biological target: T1, human factor B (purified, Complement …); assay: BLI (Octet), biotinylated factor B on streptavidin biosensor, Fab at 100 nM
Method: as §2

[5] = biological target: T1, human factor B (purified, Complement …); assay: BLI (Octet), biotinylated factor B on streptavidin biosensor, Fab at 12.5 nM
Method: as §2

[6] = biological target: T1, human factor B (purified, Complement …); assay: BLI (Octet), biotinylated factor B on streptavidin biosensor, Fab at 3.13 nM
Method: as §2

[7] = biological target: T1, human factor B (purified, Complement …); assay: SPR (Biacore), human factor B directly coupled to CM5 chip, Fab flowed at 0.19-25 nM
Excerpt: as §1

[8] = biological target: T1, human factor B (purified, Complement …); assay: SPR (Biacore), factor B directly bound to the chip at low coverage, TA106 Fab flowed over
Excerpt: (§3) The difference in the two Biacore data sets could be explained as either that the conformation of factor B changes when binding to the surface or that not all commercial factor B is active. This later Biacore experiment (with a fixed concentration of factor B bound to the chip) removed the factor B concentration from the calculation.

[9] = biological target: T1, human factor B (purified, Complement …); assay: SPR (Biacore), TA106 Fab captured on anti-Fab surface, soluble factor B flowed; Chi2 0.113
[10] = biological target: T1, human factor B (purified, Complement …); assay: SPR (Biacore), factor B bound directly to the chip, free TA106 Fab flowed; Chi2 0.901 (the text rounds to 1.4 nM)
Excerpt: as §3

[11] = biological target: T1, human factor B (purified, Complement …); assay: SPR (Biacore 3000), Fab captured by human Fab binder on CM5 chip, soluble human factor B 3.1-200 nM; Fab captured on chip, soluble factor B
Excerpt: Binding kinetics of mAbs were further characterized using Biacore's Surface Plasmon Resonance (SPR) technology (GE Healthcare, Piscataway, N.J.). For a detailed description of SPR and its applications in affinity measurement, please see Karlsson and Larsson, Antibody Engineering: Methods and Protocols, Methods in Molecular Biology (2003), 248: 389-415. In one exemplary experiment, TA106 Fab and derivative mAbs were captured on chips of a Biacore 3000 analyzer and samples of human factor B of different concentrations were flowed as the antigen over the surface to model soluble human factor B binding, using protocols recommended by the manufacturer (e.g., in the product brochure #BR-9003-31). All these referenced publications are hereby incorporated by reference in their entirety. […] Fab TA106 (Xoma, Lot#TTA1007, 20 mg/mL) was then flowed over one flow cell, followed by injections of human factor B on both flow cells. Concentrations (factor B) between 3.1-200 nM were run. The surface was regenerated between each cycle. […] The affinities of mAbs, i.e., CLS011, CLS012, and CLS013, were determined using a similar capture approach. In one exemplary experiment, human anti-Fc antibody was amine coupled to two flow cells of a CM5 chip. Each of the TA106-originated mAbs was then flowed over one flow cell, followed by injecting human factor B (3.1-200 nM) on both flow cells. […]

T1 sequence (P00751 26-764): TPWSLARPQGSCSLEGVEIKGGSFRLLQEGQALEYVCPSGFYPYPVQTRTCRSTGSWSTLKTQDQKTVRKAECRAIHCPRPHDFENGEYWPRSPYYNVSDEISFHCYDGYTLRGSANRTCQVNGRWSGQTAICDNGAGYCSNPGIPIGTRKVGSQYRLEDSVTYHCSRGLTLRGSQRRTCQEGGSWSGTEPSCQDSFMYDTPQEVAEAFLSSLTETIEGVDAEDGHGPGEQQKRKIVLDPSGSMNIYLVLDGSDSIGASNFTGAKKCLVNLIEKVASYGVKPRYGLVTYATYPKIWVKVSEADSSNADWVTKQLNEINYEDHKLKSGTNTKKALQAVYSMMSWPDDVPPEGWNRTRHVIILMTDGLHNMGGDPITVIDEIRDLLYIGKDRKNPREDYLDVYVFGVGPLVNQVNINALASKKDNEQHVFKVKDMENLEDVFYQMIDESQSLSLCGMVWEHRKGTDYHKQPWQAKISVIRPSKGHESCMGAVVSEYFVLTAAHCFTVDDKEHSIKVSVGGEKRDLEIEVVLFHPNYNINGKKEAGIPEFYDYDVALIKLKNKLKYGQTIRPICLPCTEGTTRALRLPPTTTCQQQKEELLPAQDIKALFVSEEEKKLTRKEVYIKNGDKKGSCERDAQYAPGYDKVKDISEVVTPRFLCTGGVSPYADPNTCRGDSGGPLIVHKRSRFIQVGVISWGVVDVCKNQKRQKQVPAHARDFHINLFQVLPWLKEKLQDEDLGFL

B1: TA106 Fab (humaneered anti-factor B Fab, expressed in E. coli) (Fab, V domains shown)
VH: QVQLVQSGAEVKKPGASVKVSCKASGYSFTDYYMTWVRQAPGQGLEWMGWINPNSGGTKYAQKFQGRVTMTRDTSISTAYMELSRLRSDDTAVYYCARGYYANSAWFAYWGQGTLVTVSS
VL: DIVMTQSPDSLAVSLGERATINCKSSQSLLNSSTSKNYLAWYQQKPGQPPKLLIYWASTRESGVPDRFSGSGSGTDFTLTISSLQAEDVAVYYCKQVYNLPWTFGQGTKLEIKR
notes: Fab made in E. coli by Xoma, not glycosylated; also called Fab TA106; TA106 wild type Fab
B1 was tested, and the “IC50 (read off the curve); lysis of rabbit red blood cells in 10% normal human serum” value [1] was about 80 nM, the Kd [2] was 1.5 nM and the Kd [3] was 22.7 nM. For the same binder, the koff [3] was 0.0039 s⁻¹, the kon [3] was 172000 M⁻¹ s⁻¹ and the Kd [4] was 13 nM. For the same binder, the koff [4] was 0.00405 s⁻¹, the kon [4] was 312000 M⁻¹ s⁻¹ and the Kd [5] was 29.8 nM. It also gave a koff [5] of 0.00324 s⁻¹, a kon [5] of 109000 M⁻¹ s⁻¹ and a Kd [6] of 32.3 nM. For the same binder, the koff [6] was 0.00239 s⁻¹, the kon [6] was 74000 M⁻¹ s⁻¹ and the Kd [7] was about 1.2 nM. For the same binder, the Kd [8] was 1.4 nM, the koff [9] was 0.0036 s⁻¹ and the kon [9] was 118000 M⁻¹ s⁻¹. For the same binder, the Kd [10] was 1.39 nM and the Kd [11] was about 24.9 nM.
